The results in this text go back to patent US11591580B2, “K85 mutation-containing plant EPSPS mutant, and encoding gene and application thereof” (GEVOTO LLC, priority 2017, dated 2023).

Assay [1] deals with transgenic rice seedlings. Briefly: glyphosate resistance of the EPSPS mutant in transgenic rice plants sprayed with glyphosate (Example 8, Table 1). Type of assay: in vivo, rice (Nipponbare). An excerpt:
A method for detecting the glyphosate resistance of the G1 soybean EPSPS mutant (SEQ ID NO: 20), G2 soybean EPSPS mutant (SEQ ID NO: 22) and G3 soybean EPSPS mutant (SEQ ID NO: 24) provided in Example 7, the R1 rice EPSPS mutant (SEQ ID NO: 4) provided in Example 5, and the Z1 maize EPSPS mutant (SEQ ID NO: 12) provided in Example 6 in the transgenic rice is as follows:
The plasmids (containing the EPSPS mutant gene) of the monoclonal resistant bacteria of pADV5-EPSPS in Examples 1-7 were extracted by a conventional method, followed by double enzyme digestion by Pac1 and BstEII, the small fragments were collected, and then the small fragments were ligated, using T4 DNA ligase, to the pGVP1 vectors that had undergone the same double enzyme digestion, to obtain a pGVP1-EPSPS vector having a structure as shown in FIG. 8.
In the present example, the glyphosate resistance of the EPSPS mutant in transgenic rice plants were verified. An experiment method is as follows:
The transgenic rice seedlings transplanted were uniformly arranged in a same experiment area (preventing leaves from overlapping). The areas occupied by the experiment groups and the control group were calculated, and according to the areas, glyphosate was sprayed at a 1× dosage of 1060 g/hectare (0.106 g/m^2). 2× dosage was 2120 g/hectare, 5× dosage was 5300 g/hectare, and 20× dosage was 21200 g/hectare.
Commercially available Roundup® 41% ammonium glyphosate was used. Roundup® ammonium glyphosate with corresponding volumes was taken according to the above sprayed concentrations, then diluted with 20 times of volume of water, and then uniformly sprayed on the plants in the experiment groups and the control group. After leaf surfaces were dry, the plants were moved into greenhouse or outdoor to cultivate.
After the glyphosate was sprayed at the 1× dosage, growth states of the plants in each group were observed and recorded on a 10th day, and glyphosate was sprayed to the survived plants at the 2× dosage. The growth states of the plants in each group were observed and recorded 10 days later, and glyphosate was sprayed to the survived plants at the 5× dosage. The growth states of the plants in each group were observed and recorded 10 days later, and glyphosate was sprayed to the survived plants at the 20× dosage. The growth states of the plants in each group were observed and recorded 10 days later, and results are shown in Table 1, wherein corresponding numbers of plants denoted by −, +, ++ and +++ are listed, and “%++&+++” is percentage of plant having medium and high glyphosate resistance to the total number of plants observed.

The test system of a further assay is double knockout E. coli. Kind of assay: growth of E. coli transformed by genes encoding soybean EPSPS (wild type and mutants) in culture media containing different glyphosate concentrations (Example 7, FIG. 3). Type of assay: cell-based. To be noted: culture media containing 1 mM glyphosate.
Where [2] appears, read: 1X dosage (1060 g/hectare glyphosate), recorded on 10th day.
The mark [3] stands for this setting: 2X dosage (2120 g/hectare) sprayed to plants surviving 1X, recorded 10 days later.
Setting [4] is: 5X dosage (5300 g/hectare) sprayed to plants surviving 2X, recorded 10 days later.
Where [5] appears, read: 20X dosage (21200 g/hectare) sprayed to plants surviving 5X, recorded 10 days later.

B1: G0: wild-type soybean EPSPS represented by SEQ ID NO: 18; control group of Example 7 (protein)
chain: MAAAEKPSTAPEIVLEPIKDISGTITLPGSKSLSNRILLLAALSEGTTVVDNLLYSEDIHYMLGALRTLGLRVEDDQTTKQAIVEGCGGLFPTIKESKDEINLFLGNAGTAMRPLTAAVVAAGGNASYVLDGVPRMRERPIGDLVAGLKQLGADVDCFLGTNCPPVRVNGKGGLPGGKVKLSGSVSSQYLTALLMAAPLALGDVEIEIVDKLISVPYVEMTLKLMERFGVSVEHSGDWDKFLVHGGQKYKSPGNAFVEGDASSASYFLAGAAVTGGTITVNGCGTSSLQGDVKFAEVLEKMGAKVTWSENSVTVTGPPQDSSGQKVLQGIDVNMNKMPDVAMTLAVVALFANGQTTIRDVASWRVKETERMIAICTELRKLGATVEEGPDYCVITPPEKLNVTAIDTYDDHRMAMAFSLAACGDVPVTIKDPGCTRKTFPDYFEVLERFTRH
modifications: Glycine max
As for B1, in assay [1] (setting [2]), the “% ++&+++ (percentage of plant having medium and high glyphosate resistance to the total number of plants observed)” value came to 0.0%; the “number of plants with resistance + (low glyphosate resistance)” value (from here on “number … (low glyphosate resistance)”) is reported as 0; the “number of plants with resistance ++ (medium glyphosate resistance)” value (from here on “number … (medium glyphosate resistance)”) was 0; the “number of plants with resistance +++ (high glyphosate resistance)” value (from here on “number of plants with resistance +++”) came out at 0. Besides, the “number of plants with resistance − (no glyphosate resistance)” value (“number … (no glyphosate resistance)” for short) in assay [1] (setting [2]) is 36. Also, in assay [1] (setting [3]), the “% ++&+++ (percentage of plant having medium and high glyphosate resistance to the total number of plants observed)” value was found to be 0.0%; the “number … (low glyphosate resistance)” value was found to be 0; the “number … (medium glyphosate resistance)” value is on record as 0; the “number of plants with resistance +++” value worked out at 0. In assay [1] (setting [3]), the “number … (no glyphosate resistance)” value came out at 36. Further, in assay [1] (setting [4]), the “% ++&+++ (percentage of plant having medium and high glyphosate resistance to the total number of plants observed)” value stood at 0.0%; the “number … (low glyphosate resistance)” value is 0; the “number … (medium glyphosate resistance)” value was found to be 0; the “number of plants with resistance +++” value is given as 0. The “number … (no glyphosate resistance)” value in assay [1] (setting [4]) was found to be 36. Moreover, in assay [1] (setting [5]), the “% ++&+++ (percentage of plant having medium and high glyphosate resistance to the total number of plants observed)” value stood at 0.0%; the “number … (low glyphosate resistance)” value came to 0; the “number … (medium glyphosate resistance)” value was 0; the “number of plants with resistance +++” value came out at 0. Moreover, in assay [1] (setting [5]), the “number … (no glyphosate resistance)” value was found to be 36. Further, the “glyphosate resistance of transformed rice seedlings (in words)” value in assay [1] (glyphosate sprayed at the 1× dosage) was “had no resistance and died”. In the assay with double knockout E. coli, the “growth of transformed E. coli” value is listed as “substantially could not grow”.
